Substrate in data set [1]: N[C@@H](Cc1c[nH]c2ccccc12)C(=O)O
As to the kind of experiment: purified protein. The class given is biochemical, Caenorhabditis elegans. Particulars: 0.5 mM NADPH, excess FAD, 0.04 µM FMO-2, 25 mM sodium phosphate pH 8.5, 0.5 mM DETAPAC, 30 °C.

Substrate in data set [2]: NC(=O)C1=CN([C@@H]2O[C@H](COP(=O)(O)OP(=O)(O)OC[C@H]3O[C@@H](n4cnc5c(N)ncnc54)[C@H](OP(=O)(O)O)[C@@H]3O)[C@@H](O)[C@H]2O)C=CC1
As to the kind of experiment: purified protein. The format is biochemical, Caenorhabditis elegans. The settings on record: NADPH varied 10 µM to 1.5 mM, excess FAD, 25 mM sodium phosphate pH 8.5, 30 °C, varied: cofactor.

B1: FMO-2 (CeFMO-2) (Caenorhabditis elegans) (protein)
chain: MGNKRVAVIGAGASGLPSIRHGLLYGFDVTCFEASDDIGGLWRYKSHETNESSVMKTTVINTSKEMTAYSDFTPQENLANFMHNNEMLNYFKSYAEHHGLMKHIKLRHRVLNIERSKNYDNDGTWKVIYQTPEEKTLEEIFDGVLVCSGHHAIPHWPKPFPGQNEFKGRIVHSHDYKDHKGYEDKVVVVVGIGNSGIDVAVEQSRIAKQVYLVTRRGTWLIPKLETRGLPFDIIMNTRFFSLYKLFPQAMLNSLVEYRINQRIDHDLYGLKPAHRVFSAHPSLNDELPNRIANGTVRIKPNIKKFDGYAIHFEDGTIVPHVDEVVMSTGFSFEFNLIEHGKLVPVSENEVDLFKYMFPVATSDHNSLCIIGLIQPFGSIMPVSEQQARVFFANMVSGNNLIPKKSQMSEDVLNKKEAMAQQFVKSRRHTIQVDYIPYMDELAELIGCQVPLLRTLFTDPVLGLRLFFGPNAGYCYRLAGPHTWNGARNAILTIDQRVRMATTTKPEPTNYTVPLVISSIILLLVIYFVM
notes: purified FMO-2 protein purchased from GenScript; assayed with excess FAD
On to B1, for which, in data set [1], the Km worked out at 880 ± 430 µM and the kcat was determined as 9.7 ± 1.5 s⁻¹. In data set [2], the Km was found to be 2500 ± 1240 µM and the kcat came out at 264 ± 98 s⁻¹.

Source of the values: publication PMC9894935, “FMO rewires metabolism to promote longevity through tryptophan and one carbon metabolism in C. elegans” (Nature Communications, 2023).
